Data taken from patent US5559019.

Experiments:
[1] = target: SF2/ASF (wild type) (Homo sapiens (Human)) (UniProt Q07955)
[2] = target: myelin basic protein (MBP)

## SR protein-specific kinase, SRPK1 (enzyme)
[1]
  Km for phosphorylation of SF2/ASF: 0.07 µM
  Vmax for phosphorylation of SF2/ASF: 0.45 pmol per min
[2]
  Km for phosphorylation of MBP: 5.8 µM
  Vmax for phosphorylation of MBP: 0.02 pmol per min
